Experimental data: patent publication US8404647B2, “Peptidylarginine deiminase (PAD) inhibitors” (Chiralix B.V., priority 2008, dated 2013)
Marks after values point to notes of the source that are not given here. Ends that are not written are not given here.

Columns and labels:
Type in all cases: biochemical
[1] = biological target: T1, PAD2 (Homo sapiens, UniProt Q9Y2J8); test: Conversion (R to Cit) of substrate peptides by PAD2, mass spectrometry; conditions: for Conversion by PAD2 (%): Table 10; for Conversion (%): Table 9, PAD2
T1 sequence (Q9Y2J8 whole entry): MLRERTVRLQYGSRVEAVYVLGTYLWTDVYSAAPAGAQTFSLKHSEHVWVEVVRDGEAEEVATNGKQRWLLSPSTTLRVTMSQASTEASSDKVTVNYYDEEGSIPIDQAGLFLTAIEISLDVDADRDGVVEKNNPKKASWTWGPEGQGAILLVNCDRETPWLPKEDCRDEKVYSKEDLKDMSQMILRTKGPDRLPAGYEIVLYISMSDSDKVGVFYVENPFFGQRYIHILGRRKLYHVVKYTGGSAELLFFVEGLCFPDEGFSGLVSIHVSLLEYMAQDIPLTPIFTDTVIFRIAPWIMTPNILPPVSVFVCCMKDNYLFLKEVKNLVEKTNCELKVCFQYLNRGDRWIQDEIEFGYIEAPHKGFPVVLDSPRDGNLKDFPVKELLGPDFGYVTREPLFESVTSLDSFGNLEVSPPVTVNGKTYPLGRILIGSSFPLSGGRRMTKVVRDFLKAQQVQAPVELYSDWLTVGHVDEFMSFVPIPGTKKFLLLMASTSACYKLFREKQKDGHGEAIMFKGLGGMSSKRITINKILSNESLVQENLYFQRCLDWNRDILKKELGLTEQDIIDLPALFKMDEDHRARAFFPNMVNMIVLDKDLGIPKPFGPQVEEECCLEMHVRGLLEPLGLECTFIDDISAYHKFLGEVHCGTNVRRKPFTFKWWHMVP
Experimental: In a similar fashion as for PAD4 we identified improved peptide substrates for PAD2. Again L1 was used as a lead compound. The set of 152 peptides from Table 3 was used and testing was performed as described before.
(§1) Conversion of arginine into citrulline in the substrate peptides by PAD2 or PAD4 using mass spectrometry was performed as follows. A candidate substrate peptide was incubated with a PAD as indicated for several hours at 37° C. The reaction was quenched by the addition with acetic acid. A sample was analysed on a Qtof mass spectrometer (Micromass, UK) and the mass spectrum was compared with that of the same peptide not treated with PAD. Normally, 2^+- and 3^+-ions are detected. The conversion (ΔM=0.98 Da) was calculated on the 2^+- and 3^+-ions individually, and subsequently averaged taking into account the relative peak height of the 2^+- and 3^+-signals (see FIG. 5).

[2] = biological target: T2, PAD4 (Homo sapiens, UniProt Q9UM07); test: Conversion (R to Cit) of substrate peptides by PAD4, mass spectrometry; conditions: for Conversion (%): PAD4; for Conversion: Table 7, PAD4, test system with 3 times less enzyme; for Conversion by PAD4 (%): Table 10
T2 sequence (Q9UM07 whole entry): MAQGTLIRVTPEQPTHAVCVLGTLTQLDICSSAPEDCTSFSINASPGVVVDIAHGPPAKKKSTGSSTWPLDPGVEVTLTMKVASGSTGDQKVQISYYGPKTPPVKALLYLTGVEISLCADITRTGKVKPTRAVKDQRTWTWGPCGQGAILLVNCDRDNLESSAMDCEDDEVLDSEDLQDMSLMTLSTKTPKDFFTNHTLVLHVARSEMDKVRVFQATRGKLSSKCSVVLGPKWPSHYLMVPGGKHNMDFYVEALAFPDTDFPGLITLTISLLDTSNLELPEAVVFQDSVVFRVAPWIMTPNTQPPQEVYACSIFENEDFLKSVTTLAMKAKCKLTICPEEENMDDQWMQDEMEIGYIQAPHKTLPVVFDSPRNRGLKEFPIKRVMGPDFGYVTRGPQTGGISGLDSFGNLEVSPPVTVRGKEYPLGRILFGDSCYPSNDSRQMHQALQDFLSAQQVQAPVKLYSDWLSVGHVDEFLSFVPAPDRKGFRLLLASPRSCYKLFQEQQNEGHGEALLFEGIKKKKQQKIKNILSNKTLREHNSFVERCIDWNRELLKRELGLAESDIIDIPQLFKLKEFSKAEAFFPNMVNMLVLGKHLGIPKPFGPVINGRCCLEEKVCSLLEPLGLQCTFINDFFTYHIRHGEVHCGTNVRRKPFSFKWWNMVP
Text: From previous studies it was known that D-S-Q-F-A-F-R-G-A-S-A-S-D (designated here as L1: SEQ ID NO: 11) is a substrate for PAD2 and PAD 4. To obtain better substrates, and subsequently powerful inhibitors, we intended to identify structural elements that improve substrate properties. A set of 152 individual analog peptides was generated, each differing from L1 by one amino acid at one of the positions −4 to −1 or 1 to 4.
In Table 3 the conversion of each analog (R to Cit conversion) is depicted. Values of the analogs relate to the conversion of the analog compared to the conversion of L1 under standard conditions (100 means a conversion equal to L1, 50 means conversion of 50% of that of L1, 175 means conversion of 175% of that of L1). Numbers above 100 thus relate to amino acid substitutions that improve substrate properties.
Peptides of table 4 are represented by the following sequences SEQ ID NO: 22-31 and 33-46. Control peptide are represented by the following sequences SEQ ID NO: 11 as control L1 and SEQ ID NO: 32 as control L2. Unfortunately, a substantial number of designed peptides were too polar to be analyzed on our LC-MS system (indicated in Table 4 as n.t., not trapped on the column). We therefore also generated and tested these peptides containing two additional N-terminal F-residues to increase hydrophobicity. In this form peptides were trapped on the column and could be analyzed (see Table 5).
Based on the above results we designed 20 peptides containing multiple amino acids that improve substrate properties (see Table 7). The indicated peptides were synthesized and tested in order to identify the best substrate from this group. Here we used a test system with less enzyme (3 times less) compared to the experiments described above.
as §1

[3] = biological target: T2, PAD4; test: Citrullination of synthetic peptides by recombinant human PAD4 (MALDI-TOF and ESI-Q-TOF mass spectrometry); design: His6; made in house; conditions: for PAD4 conversion: Arg: share of peptide still unconverted (Arg); for PAD4 conversion: 1 Cit: share of peptide with one citrulline
Experimental: (§2) Subsequently, the citrullinated proteins were isolated from the cell lysates by immunoaffinity purification using the RA3 single chain antibody fragment (scFv), which is specific for citrullinated epitopes {Raats et al., 2003}. After digestion of the purified proteins with trypsin, the amino acid sequence of the resulting peptides was determined by tandem mass spectrometry. Based upon the mass spectrometry data the peptides containing citrullinated residues were identified. In total 90 and 57 citrullinated peptides were identified in proteins derived from the COS-1 cells expressing PAD2 and PAD4, respectively, and 107 and 38 citrullinated peptides were obtained from HEK-293 cell material for PAD2 and PAD4, respectively. The frequency of amino acids at each of the positions between 5 residues N-terminal and 5 residues C-terminal from a citrullinated residue was derived from the combined sequences of these sites and is illustrated in Table 1. […] The efficiency by which these peptides were citrullinated by the human PAD2 and PAD4 enzymes was investigated by incubating them with the bacterially expressed, His6-tagged and IMAC purified, recombinant enzymes, followed by analysis of the products by both MALDI-TOF and ESI-Q-TOF mass spectrometry.

[4] = biological target: T1, PAD2; test: Citrullination of synthetic peptides by recombinant human PAD2 (MALDI-TOF and ESI-Q-TOF mass spectrometry); design: His6; made in house; conditions: for PAD2 conversion: Arg: share of peptide still unconverted (Arg); for PAD2 conversion: 1 Cit: share of peptide with one citrulline
Experimental: as §2

[5] = Table 5, peptides with two additional N-terminal F-residues

| Substance | Conversion by PAD2 (%) [1] | Conversion [2] | Conversion by PAD4 (%) [2] | Conversion (%) [2, 5] [%] | further results |
| --- | --- | --- | --- | --- | --- |
| D-S-K-K-H-D-R-D-F-L-Y-S-D (DSKKHDRDFLYSD; not fully specified (C-terminus); printed as D-S-K-K-H-D-R-D-F-L-Y-S-D) [Peptide 0608-31] | 84(=L2) % | 45 (=L2) | 58(=L2) % | – | Conversion (%) ([2]; Table 4, 13-mer peptides): 100% (=L2); conversion of L2 analogs by PAD4 ([2]; relative to conversion of L2 (L2 = 100), single substitution at positions -4 to 4): 100% |
| D-S-K-K-H-D-R-D-H-L-W-S-D (DSKKHDRDHLWSD; not fully specified (C-terminus); printed as D-S-K-K-H-D-R-D-H-L-W-S-D) [Peptide 0708-20] | 95% | 62 | 80% | – | – |
| D-S-K-K-H-F-R-D-K-L-Y-S-D (DSKKHFRDKLYSD; not fully specified (C-terminus); printed as D-S-K-K-H-F-R-D-K-L-Y-S-D) [Peptide 0708-22] | 92% | 43 | 37% | – | – |
| D-S-K-K-H-F-R-G-K-L-Y-S-D (DSKKHFRGKLYSD; not fully specified (C-terminus); printed as D-S-K-K-H-F-R-G-K-L-Y-S-D) [Peptide 0708-32] | 96% | 24 | 22% | – | – |
| D-S-K-K-K-H-R-E-W-V-W-S-D (DSKKKHREWVWSD; not fully specified (C-terminus); printed as D-S-K-K-K-H-R-E-W-V-W-S-D) [Peptide 0608-32] | 100% | – | 72% | – | – |
| D-S-K-K-L-H-R-D-H-M-E-S-D (DSKKLHRDHMESD; not fully specified (C-terminus); printed as D-S-K-K-L-H-R-D-H-M-E-S-D) [Peptide 0608-29] | 90% | – | 65% | – | – |
| D-S-K-K-Y-D-R-D-F-L-W-S-D (DSKKYDRDFLWSD; not fully specified (C-terminus); printed as D-S-K-K-Y-D-R-D-F-L-W-S-D) [Peptide 0708-29] | 92% | 61 | 76% | – | – |
| D-S-K-K-Y-D-R-G-F-L-W-S-D (DSKKYDRGFLWSD; not fully specified (C-terminus); printed as D-S-K-K-Y-D-R-G-F-L-W-S-D) [Peptide 0708-34] | 93% | 64 | 81% | – | – |
| D-S-K-W-H-H-R-D-H-L-Y-S-D (DSKWHHRDHLYSD; not fully specified (C-terminus); printed as D-S-K-W-H-H-R-D-H-L-Y-S-D) [Peptide 0708-18] | 90% | 60 | 71% | – | – |
| D-S-K-W-H-H-R-G-H-L-Y-S-D (DSKWHHRGHLYSD) [Peptide 0708-31] | 96% | 52 | 71% | – | – |
| D-S-K-W-Y-H-R-N-K-F-W-S-D (DSKWYHRNKFWSD) [Peptide 0735-27] | 98% | – | 45% | – | Conversion (%) [1]: 98% |
| D-S-Q-W-A-F-R-H-A-L-F-S-D (DSQWAFRHALFSD) [Peptide 0735-37] | 95% | – | <20% | – | Conversion (%) [1]: 95% |
| DDYSSSRDGYGGS [SEQ ID NO: 1] | – | – | – | – | PAD4 conversion: Arg [3]: 97%; PAD4 conversion: 1 Cit [3]: 3%; PAD2 conversion: Arg [4]: 88%; PAD2 conversion: 1 Cit [4]: 12% |
| DGYGGSRDSYSSS [SEQ ID NO: 3] | – | – | – | – | PAD4 conversion: Arg [3]: 97%; PAD4 conversion: 1 Cit [3]: 3%; PAD2 conversion: Arg [4]: 54%; PAD2 conversion: 1 Cit [4]: 46% |
| DSEGTWRKGPEAD [SEQ ID NO: 8] | – | – | – | – | PAD4 conversion: Arg [3]: 85%; PAD4 conversion: 1 Cit [3]: 15%; PAD2 conversion: Arg [4]: 15%; PAD2 conversion: 1 Cit [4]: 85% |
| F-F-D-S-H-K-F-D-R-D-F-I-Y-S-D (FFDSHKFDRDFIYSD) [Peptide 0612-45] | 97 ** % | – | 94% | 100 | – |
| F-F-D-S-H-K-H-S-R-E-W-L-W-S-D (FFDSHKHSREWLWSD) [Peptide 0612-38] | 96% | – | 72% | 100 | – |
| F-F-D-S-H-K-K-S-R-E-Y-V-F-S-D (FFDSHKKSREYVFSD) [Peptide 0612-44] | 100% | – | 58% | 100 | – |
| F-F-D-S-H-K-L-H-R-E-W-M-W-S-D (FFDSHKLHREWMWSD) [Peptide 0612-46] | 92 ** % | – | 91% | 100 | – |
| F-F-D-S-H-K-W-H-R-D-F-F-Y-S-D (FFDSHKWHRDFFYSD) [Peptide 0612-37] | 96 ** % | – | 88% | 100 | – |
| F-F-D-S-K-H-F-D-R-E-W-I-W-S-D (FFDSKHFDREWIWSD) [Peptide 0612-30] | 94 ** % | – | 89% | 100 | – |
| F-F-D-S-K-H-K-S-R-D-F-V-Y-S-D (FFDSKHKSRDFVYSD) [Peptide 0612-29] | 92% | – | 77% | 100 | – |
| F-F-D-S-K-H-L-S-R-E-W-M-W-S-D (FFDSKHLSREWMWSD) [Peptide 0612-26] | 97% | – | 73% | 100 | – |
| F-F-D-S-K-K-F-S-R-D-H-I-E-S-D (FFDSKKFSRDHIESD) [Peptide 0612-35] | 90% | – | 63% | 97 | – |
| F-F-D-S-K-K-K-H-R-E-W-V-W-S-D (FFDSKKKHREWVWSD) [Peptide 0612-34] | 99% | – | 76% | 100 | – |
| F-F-D-S-K-K-W-S-R-E-Y-F-F-S-D (FFDSKKWSREYFFSD) [Peptide 0612-32] | 94% | – | 76% | 100 | – |
